Data on one molecule can be found in EP4688000A1 (dated 2026).

Assay [1] has as its target T1, mouse integrin α6β4 on cells (CHO-S-murine ITGA6B4-#12; 4T1) (mouse, UniProt A2A863 29-1818; Q61739 24-1091).
T1 construct: whole, on cells; also called mouse ITGB4; CHO-S-mouse ITGB4
Briefly: flow cytometry on 4T1 and CHO-S-murine ITGA6B4-#12 cells. A general note: Flow cytometry measures light scatter and fluorescence of single cells or particles in a stream.

For assay [2], the target named is T2, human integrin α6β1 on CHO-S cells (CHO-S-human ITGA6B1-#24) (human, UniProt P05556 21-798; P23229 24-1130).
T2 construct: whole, on cells; also called human ITGB1
Briefly: flow cytometry on CHO-S-human ITGA6B1-#24 cells.

T1 sequence (A2A863 29-1818, chain 1 of 2): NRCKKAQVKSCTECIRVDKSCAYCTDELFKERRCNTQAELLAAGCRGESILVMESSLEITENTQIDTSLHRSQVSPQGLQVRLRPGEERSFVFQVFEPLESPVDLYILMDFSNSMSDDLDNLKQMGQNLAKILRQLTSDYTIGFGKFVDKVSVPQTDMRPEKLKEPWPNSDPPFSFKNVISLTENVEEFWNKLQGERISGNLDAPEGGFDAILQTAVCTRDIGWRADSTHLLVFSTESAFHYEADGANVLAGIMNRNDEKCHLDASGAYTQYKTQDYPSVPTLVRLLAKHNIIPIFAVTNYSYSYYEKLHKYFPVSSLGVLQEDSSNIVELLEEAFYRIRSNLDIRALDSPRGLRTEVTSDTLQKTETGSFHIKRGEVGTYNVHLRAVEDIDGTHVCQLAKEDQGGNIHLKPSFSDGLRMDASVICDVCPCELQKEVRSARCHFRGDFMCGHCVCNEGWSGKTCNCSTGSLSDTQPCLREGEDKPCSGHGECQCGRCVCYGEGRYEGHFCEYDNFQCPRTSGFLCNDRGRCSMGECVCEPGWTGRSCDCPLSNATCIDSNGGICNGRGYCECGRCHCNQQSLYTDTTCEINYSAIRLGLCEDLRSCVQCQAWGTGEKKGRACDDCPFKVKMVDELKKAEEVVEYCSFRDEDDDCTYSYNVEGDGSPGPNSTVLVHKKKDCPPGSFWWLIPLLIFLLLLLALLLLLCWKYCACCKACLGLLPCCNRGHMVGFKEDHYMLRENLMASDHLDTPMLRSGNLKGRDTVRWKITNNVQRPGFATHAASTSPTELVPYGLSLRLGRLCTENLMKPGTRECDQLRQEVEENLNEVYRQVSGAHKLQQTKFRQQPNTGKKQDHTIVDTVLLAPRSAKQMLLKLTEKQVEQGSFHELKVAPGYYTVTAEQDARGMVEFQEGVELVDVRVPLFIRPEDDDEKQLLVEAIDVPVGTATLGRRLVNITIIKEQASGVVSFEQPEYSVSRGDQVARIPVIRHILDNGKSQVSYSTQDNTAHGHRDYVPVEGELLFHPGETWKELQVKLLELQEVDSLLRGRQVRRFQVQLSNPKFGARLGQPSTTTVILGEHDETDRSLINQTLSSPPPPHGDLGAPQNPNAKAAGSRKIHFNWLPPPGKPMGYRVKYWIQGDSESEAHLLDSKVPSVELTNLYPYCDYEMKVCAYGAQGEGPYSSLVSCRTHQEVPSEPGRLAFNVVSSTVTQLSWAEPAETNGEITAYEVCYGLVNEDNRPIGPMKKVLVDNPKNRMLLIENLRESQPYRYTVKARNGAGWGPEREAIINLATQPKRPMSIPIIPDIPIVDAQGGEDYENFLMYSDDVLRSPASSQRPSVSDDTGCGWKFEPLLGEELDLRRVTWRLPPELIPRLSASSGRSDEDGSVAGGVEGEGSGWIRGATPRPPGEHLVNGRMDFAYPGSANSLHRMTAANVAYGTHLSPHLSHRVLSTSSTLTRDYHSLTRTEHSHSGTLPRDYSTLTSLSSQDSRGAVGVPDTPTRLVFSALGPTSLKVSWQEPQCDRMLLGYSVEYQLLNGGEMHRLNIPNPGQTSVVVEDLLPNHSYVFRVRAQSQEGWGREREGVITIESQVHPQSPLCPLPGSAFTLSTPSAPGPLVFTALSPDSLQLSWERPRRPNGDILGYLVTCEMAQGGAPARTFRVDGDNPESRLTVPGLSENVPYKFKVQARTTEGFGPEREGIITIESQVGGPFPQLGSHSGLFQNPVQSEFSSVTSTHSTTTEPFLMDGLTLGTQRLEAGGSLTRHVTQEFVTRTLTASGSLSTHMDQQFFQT
T1 sequence (Q61739 24-1091, chain 2 of 2): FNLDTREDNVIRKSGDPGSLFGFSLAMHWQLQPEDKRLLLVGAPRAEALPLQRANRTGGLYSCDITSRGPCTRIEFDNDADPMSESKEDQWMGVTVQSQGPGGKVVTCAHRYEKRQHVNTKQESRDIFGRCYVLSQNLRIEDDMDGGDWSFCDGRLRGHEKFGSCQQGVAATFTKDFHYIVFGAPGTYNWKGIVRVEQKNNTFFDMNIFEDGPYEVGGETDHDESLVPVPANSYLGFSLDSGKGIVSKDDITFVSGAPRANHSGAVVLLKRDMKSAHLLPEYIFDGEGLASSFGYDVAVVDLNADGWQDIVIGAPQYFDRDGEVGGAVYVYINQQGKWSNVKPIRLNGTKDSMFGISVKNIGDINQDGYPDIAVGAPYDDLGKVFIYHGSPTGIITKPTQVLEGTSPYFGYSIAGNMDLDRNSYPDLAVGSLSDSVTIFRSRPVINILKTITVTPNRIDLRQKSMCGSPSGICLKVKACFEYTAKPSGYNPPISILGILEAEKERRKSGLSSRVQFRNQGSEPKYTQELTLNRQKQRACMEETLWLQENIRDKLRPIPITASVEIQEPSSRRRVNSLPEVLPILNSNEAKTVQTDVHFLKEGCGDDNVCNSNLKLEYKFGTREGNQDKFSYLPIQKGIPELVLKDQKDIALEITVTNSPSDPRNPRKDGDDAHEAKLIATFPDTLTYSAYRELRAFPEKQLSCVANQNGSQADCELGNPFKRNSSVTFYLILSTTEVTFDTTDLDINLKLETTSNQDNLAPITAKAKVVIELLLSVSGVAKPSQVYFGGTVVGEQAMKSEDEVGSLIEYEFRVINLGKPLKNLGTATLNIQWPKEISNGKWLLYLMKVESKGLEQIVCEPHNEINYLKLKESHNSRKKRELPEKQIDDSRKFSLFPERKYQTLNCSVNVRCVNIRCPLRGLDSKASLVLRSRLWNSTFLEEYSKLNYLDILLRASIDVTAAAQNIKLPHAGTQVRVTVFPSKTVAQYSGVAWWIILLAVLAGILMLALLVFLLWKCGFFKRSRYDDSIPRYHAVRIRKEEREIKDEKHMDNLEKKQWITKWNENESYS
T2 sequence (P05556 21-798, chain 1 of 2): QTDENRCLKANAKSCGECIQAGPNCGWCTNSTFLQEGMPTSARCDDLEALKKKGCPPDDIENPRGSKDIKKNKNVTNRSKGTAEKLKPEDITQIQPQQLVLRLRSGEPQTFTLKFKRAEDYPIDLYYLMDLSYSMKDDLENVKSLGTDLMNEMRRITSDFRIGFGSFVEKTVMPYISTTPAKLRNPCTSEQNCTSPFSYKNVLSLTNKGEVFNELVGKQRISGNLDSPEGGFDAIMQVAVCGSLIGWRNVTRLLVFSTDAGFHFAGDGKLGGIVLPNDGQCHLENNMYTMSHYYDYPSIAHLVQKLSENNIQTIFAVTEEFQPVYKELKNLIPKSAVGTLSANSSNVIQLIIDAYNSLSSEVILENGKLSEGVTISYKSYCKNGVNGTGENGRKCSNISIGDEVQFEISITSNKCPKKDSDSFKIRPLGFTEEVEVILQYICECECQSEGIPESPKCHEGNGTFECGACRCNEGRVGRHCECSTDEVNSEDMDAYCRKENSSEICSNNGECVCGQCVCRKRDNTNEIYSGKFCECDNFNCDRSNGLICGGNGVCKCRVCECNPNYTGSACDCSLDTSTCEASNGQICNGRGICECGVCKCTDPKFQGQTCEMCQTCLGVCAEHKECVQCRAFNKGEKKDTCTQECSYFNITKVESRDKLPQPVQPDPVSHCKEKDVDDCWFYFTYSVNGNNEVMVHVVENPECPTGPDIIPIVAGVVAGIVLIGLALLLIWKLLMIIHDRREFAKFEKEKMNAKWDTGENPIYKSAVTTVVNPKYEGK
T2 sequence (P23229 24-1130, chain 2 of 2): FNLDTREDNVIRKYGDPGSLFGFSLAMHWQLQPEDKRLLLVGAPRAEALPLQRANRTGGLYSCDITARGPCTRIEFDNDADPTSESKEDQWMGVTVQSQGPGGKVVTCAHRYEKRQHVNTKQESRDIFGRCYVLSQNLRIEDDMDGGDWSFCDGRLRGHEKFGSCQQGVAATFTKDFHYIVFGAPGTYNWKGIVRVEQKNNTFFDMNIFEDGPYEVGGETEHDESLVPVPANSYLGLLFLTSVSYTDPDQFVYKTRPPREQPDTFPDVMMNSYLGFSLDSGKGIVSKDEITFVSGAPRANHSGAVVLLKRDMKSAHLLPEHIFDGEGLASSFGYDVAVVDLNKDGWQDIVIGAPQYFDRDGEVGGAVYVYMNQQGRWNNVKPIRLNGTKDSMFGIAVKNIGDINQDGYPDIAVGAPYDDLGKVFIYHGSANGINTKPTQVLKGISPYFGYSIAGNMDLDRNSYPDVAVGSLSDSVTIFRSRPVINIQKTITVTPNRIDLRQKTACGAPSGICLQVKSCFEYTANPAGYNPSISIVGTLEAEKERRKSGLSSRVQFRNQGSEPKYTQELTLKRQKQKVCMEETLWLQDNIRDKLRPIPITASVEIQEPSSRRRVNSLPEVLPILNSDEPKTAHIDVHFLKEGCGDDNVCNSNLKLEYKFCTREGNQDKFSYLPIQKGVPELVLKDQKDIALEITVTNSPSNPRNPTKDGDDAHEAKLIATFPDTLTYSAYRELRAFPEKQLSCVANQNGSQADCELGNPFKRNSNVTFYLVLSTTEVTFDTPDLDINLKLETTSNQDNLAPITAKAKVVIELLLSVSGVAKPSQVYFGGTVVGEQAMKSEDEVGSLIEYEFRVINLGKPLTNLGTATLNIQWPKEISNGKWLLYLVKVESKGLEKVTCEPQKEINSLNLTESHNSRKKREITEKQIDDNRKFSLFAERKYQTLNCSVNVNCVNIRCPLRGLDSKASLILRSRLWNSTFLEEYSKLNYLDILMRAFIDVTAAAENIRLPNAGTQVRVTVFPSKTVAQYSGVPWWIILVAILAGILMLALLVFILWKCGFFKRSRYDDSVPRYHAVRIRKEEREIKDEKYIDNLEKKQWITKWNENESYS

B1: anti-ITGB4 antibody 008 (parental clone) (antibody, V domains shown)
VH: QVQLKQSGPSLVQPSQSLSITCTVSGFSLTSYGVHWFRQSPGKGLEWLGVIWRGGNTDYNAAFMSRLSITKDNSKSQVFFKMNSLQPDDTAIYYCVKNYRFGGSAYWGQGTLVTVSA
VL: DIQMTQTTSSLSASLGDRVTISCRASQDISNHLNWYQQKPDGTVKLLIYYTSTLHSGVPSRFSGSGSGTDYSLTISNLEPEDIATYYCQQDLNLPWTFGGGTKLEIK
notes: In the assays it was captured on anti-human IgG Fc sensors and detected with anti-human IgG, so the tested form carries a human Fc; also called 008 clone
Turning to B1, the binding result in assay [1] and in assay [2] was “no binding” each time.
